Results reported in patent publication US20150299281A1 (ZEALAND PHARMA A S, published 2015).
Numbered stars: 1 amine (or outer) side, 2 acyl side, 3 side chain; on linkers, the order of the positions; unused ones are H or OH. Square brackets hold non-standard residues; d marks the D form. Side chains are listed from the residue outwards. * marks the point of attachment. γGlu = O=C(O)[C@H](CCC(=O)[*:2])N[*:1]; Palmitoyl = CCCCCCCCCCCCCCCC(=O)*; Aib = CC(C)(N)C(=O)O

What was measured:
human GLP-1 receptor = human GLP-1 receptor (human, UniProt P43220 24-463); assay: cell-based or functional assay
human GIP receptor = biological target: T1, human GIP receptor (human, UniProt P48546 22-466); assay: cell-based or functional assay
T1 sequence (looked up): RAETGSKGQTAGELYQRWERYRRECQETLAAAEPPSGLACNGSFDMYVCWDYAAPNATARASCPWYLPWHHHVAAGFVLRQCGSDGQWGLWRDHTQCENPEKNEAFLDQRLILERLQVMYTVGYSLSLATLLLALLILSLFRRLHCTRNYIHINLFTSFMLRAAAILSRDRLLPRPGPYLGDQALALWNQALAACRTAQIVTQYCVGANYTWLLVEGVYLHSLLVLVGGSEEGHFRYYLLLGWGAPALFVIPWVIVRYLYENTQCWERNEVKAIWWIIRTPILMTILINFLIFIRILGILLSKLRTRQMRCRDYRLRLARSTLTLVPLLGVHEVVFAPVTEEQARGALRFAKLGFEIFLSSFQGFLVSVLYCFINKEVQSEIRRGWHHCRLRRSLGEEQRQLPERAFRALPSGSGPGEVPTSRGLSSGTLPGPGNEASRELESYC

Binder	EC50, cAMP induction in HEK293 cells expressing human GLP-1 R (human GLP-1 receptor) [nM]	EC50, cAMP induction in HEK293 cells expressing human GIP R (human GIP receptor) [nM]
H-Y[Aib]EGTFTSDYSKYLDEK([γGlu-Palmitoyl])AAKDFIEWLESA-NH2 (SMILES CCCCCCCCCCCCCCCC(=O)N[C@@H](CCC(=O)NCCCC[C@H](NC(=O)[C@H](CCC(=O)O)NC(=O)[C@H](CC(=O)O)NC(=O)[C@H](CC(C)C)NC(=O)[C@H](Cc1ccc(O)cc1)NC(=O)[C@H](CCCCN)NC(=O)[C@H](CO)NC(=O)[C@H](Cc1ccc(O)cc1)NC(=O)[C@H](CC(=O)O)NC(=O)[C@H](CO)NC(=O)[C@@H](NC(=O)[C@H](Cc1ccccc1)NC(=O)[C@@H](NC(=O)CNC(=O)[C@H](CCC(=O)O)NC(=O)C(C)(C)NC(=O)[C@@H](N)Cc1ccc(O)cc1)[C@@H](C)O)[C@@H](C)O)C(=O)N[C@@H](C)C(=O)N[C@@H](C)C(=O)N[C@@H](CCCCN)C(=O)N[C@@H](CC(=O)O)C(=O)N[C@@H](Cc1ccccc1)C(=O)N[C@H](C(=O)N[C@@H](CCC(=O)O)C(=O)N[C@@H](Cc1c[nH]c2ccccc12)C(=O)N[C@@H](CC(C)C)C(=O)N[C@@H](CCC(=O)O)C(=O)N[C@@H](CO)C(=O)N[C@@H](C)C(N)=O)[C@@H](C)CC)C(=O)O) [Compound 49]	0.049	0.092
H-Y[Aib]EGTFTSDYSIYLDEK([γGlu-Palmitoyl])AAKDFIEWLESA-NH2 (SMILES CCCCCCCCCCCCCCCC(=O)N[C@@H](CCC(=O)NCCCC[C@H](NC(=O)[C@H](CCC(=O)O)NC(=O)[C@H](CC(=O)O)NC(=O)[C@H](CC(C)C)NC(=O)[C@H](Cc1ccc(O)cc1)NC(=O)[C@@H](NC(=O)[C@H](CO)NC(=O)[C@H](Cc1ccc(O)cc1)NC(=O)[C@H](CC(=O)O)NC(=O)[C@H](CO)NC(=O)[C@@H](NC(=O)[C@H](Cc1ccccc1)NC(=O)[C@@H](NC(=O)CNC(=O)[C@H](CCC(=O)O)NC(=O)C(C)(C)NC(=O)[C@@H](N)Cc1ccc(O)cc1)[C@@H](C)O)[C@@H](C)O)[C@@H](C)CC)C(=O)N[C@@H](C)C(=O)N[C@@H](C)C(=O)N[C@@H](CCCCN)C(=O)N[C@@H](CC(=O)O)C(=O)N[C@@H](Cc1ccccc1)C(=O)N[C@H](C(=O)N[C@@H](CCC(=O)O)C(=O)N[C@@H](Cc1c[nH]c2ccccc12)C(=O)N[C@@H](CC(C)C)C(=O)N[C@@H](CCC(=O)O)C(=O)N[C@@H](CO)C(=O)N[C@@H](C)C(N)=O)[C@@H](C)CC)C(=O)O) [Compound 50]	0.09	0.053
H-Y[Aib]EGTFTSDYSKYLDSK([γGlu-Palmitoyl])AAHDFVEWLLRA-NH2 (SMILES CCCCCCCCCCCCCCCC(=O)N[C@@H](CCC(=O)NCCCC[C@H](NC(=O)[C@H](CO)NC(=O)[C@H](CC(=O)O)NC(=O)[C@H](CC(C)C)NC(=O)[C@H](Cc1ccc(O)cc1)NC(=O)[C@H](CCCCN)NC(=O)[C@H](CO)NC(=O)[C@H](Cc1ccc(O)cc1)NC(=O)[C@H](CC(=O)O)NC(=O)[C@H](CO)NC(=O)[C@@H](NC(=O)[C@H](Cc1ccccc1)NC(=O)[C@@H](NC(=O)CNC(=O)[C@H](CCC(=O)O)NC(=O)C(C)(C)NC(=O)[C@@H](N)Cc1ccc(O)cc1)[C@@H](C)O)[C@@H](C)O)C(=O)N[C@@H](C)C(=O)N[C@@H](C)C(=O)N[C@@H](Cc1c[nH]cn1)C(=O)N[C@@H](CC(=O)O)C(=O)N[C@@H](Cc1ccccc1)C(=O)N[C@H](C(=O)N[C@@H](CCC(=O)O)C(=O)N[C@@H](Cc1c[nH]c2ccccc12)C(=O)N[C@@H](CC(C)C)C(=O)N[C@@H](CC(C)C)C(=O)N[C@@H](CCCNC(=N)N)C(=O)N[C@@H](C)C(N)=O)C(C)C)C(=O)O) [Compound 51]	0.11	0.24
